The record followed here is patent publication US20160346281A1.

In this assay the target is Myc-tagged Abl (Abl-Myc), Drosophila Abl (Drosophila melanogaster) (UniProt P00522). Nature of the assay: cell-based or functional assay.
Sequence of Myc-tagged Abl (Abl-Myc), Drosophila Abl (Drosophila melanogaster) (P00522 whole entry): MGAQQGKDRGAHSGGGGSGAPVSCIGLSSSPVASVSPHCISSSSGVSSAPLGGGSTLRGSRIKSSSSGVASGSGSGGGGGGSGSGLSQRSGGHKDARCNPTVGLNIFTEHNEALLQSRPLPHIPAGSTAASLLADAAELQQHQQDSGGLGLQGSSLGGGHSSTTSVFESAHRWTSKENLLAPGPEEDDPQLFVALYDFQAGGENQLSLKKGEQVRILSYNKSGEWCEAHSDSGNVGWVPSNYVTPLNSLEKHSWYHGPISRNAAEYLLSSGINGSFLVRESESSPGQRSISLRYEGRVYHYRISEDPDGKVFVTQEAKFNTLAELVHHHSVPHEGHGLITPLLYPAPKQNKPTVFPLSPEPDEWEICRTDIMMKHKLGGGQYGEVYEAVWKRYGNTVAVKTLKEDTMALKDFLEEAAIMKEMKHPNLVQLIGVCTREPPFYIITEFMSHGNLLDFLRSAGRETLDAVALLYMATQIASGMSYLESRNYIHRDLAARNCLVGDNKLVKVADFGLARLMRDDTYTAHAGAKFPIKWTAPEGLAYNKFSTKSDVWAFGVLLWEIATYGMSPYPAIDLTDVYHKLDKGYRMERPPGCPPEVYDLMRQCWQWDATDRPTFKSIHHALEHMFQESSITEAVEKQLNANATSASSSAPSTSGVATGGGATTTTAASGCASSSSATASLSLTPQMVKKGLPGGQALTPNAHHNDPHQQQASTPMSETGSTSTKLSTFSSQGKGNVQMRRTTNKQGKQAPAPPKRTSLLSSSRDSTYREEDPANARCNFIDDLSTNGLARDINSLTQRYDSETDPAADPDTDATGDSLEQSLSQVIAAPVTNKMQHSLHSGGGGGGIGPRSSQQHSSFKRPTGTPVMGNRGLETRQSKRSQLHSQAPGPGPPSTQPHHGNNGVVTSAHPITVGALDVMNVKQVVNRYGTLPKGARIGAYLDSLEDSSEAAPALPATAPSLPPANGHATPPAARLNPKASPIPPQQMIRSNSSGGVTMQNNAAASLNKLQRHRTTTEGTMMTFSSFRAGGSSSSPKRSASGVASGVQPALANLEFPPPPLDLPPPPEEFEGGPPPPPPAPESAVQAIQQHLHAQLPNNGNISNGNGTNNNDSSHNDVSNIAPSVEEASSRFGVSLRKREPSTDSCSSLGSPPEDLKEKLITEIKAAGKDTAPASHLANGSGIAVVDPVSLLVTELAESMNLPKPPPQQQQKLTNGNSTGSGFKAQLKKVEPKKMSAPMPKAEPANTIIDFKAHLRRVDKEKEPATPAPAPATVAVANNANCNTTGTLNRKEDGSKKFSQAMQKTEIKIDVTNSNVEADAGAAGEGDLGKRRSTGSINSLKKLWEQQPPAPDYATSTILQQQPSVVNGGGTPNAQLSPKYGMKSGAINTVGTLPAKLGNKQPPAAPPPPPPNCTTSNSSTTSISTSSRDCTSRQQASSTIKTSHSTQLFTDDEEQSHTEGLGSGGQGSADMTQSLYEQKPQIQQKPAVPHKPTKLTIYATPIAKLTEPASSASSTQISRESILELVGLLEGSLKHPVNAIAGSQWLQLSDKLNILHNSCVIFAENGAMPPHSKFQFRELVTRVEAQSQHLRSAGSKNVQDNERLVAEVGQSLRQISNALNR

Regarding “GFP-tagged Dscam (Dscam[3.36.25.2]::GFP) (receptor)”, the Abl kinase activation (anti-phospho-Y412-Abl blot intensity normalized to total Abl-Myc, S2 cell lysates) was found to be 2.6 fold.
